± gives the uncertainty stated by the source.
Assay: self-splicing fitness, log relative to wild type (ln ratio); higher = more splicing; Tetrahymena group I intron in knt gene, E. coli kanamycin selection, DiMSum; sequences stand for … in CUCUCU…GGAGGGAAAAGUUAUCAGGCAUGCACCUGGUAGCUAGUCUUUAAACCAAUAGAUUGCAUCGGUUUAAAAGGCAAGACCGUCAAAUUGCGGGAAAGGGGUCAACAGCCGUUCAGUACCAAGUCUCAGGGGAAACUUUGAGAUGGCCUUGCAAAGGGUAUGGUAAUAAGCUGACGGACAUGGUCCUAACCACGCAGCCAAGUCCUAAGUCAACAGAUCUUCUGUUGAUAUGGAUGCAGUUCACAGACUAAAUGUCGGUCGGGGAAGAUGUAUUCUUCUCAUAAGAUAUAGUCGGACCUCUCCUUAAUGGGAGCUAGCGGAUGAAGUGAUGCAACACUGGAGCCGCUGGGAACUAAUUUGUAUGCGAAAGUAUAUUGAUUAGUUUUGGAGUACUCGUGGUCG
How it was run: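 The eight P1ex-region nucleotides of an intron in the knt kanamycin-resistance gene on pET-22b(+) were all randomised and the library put into E. coli BL21(DE3). Six replicate transformations were grown overnight at 37°C or 30°C on LB agar with or without 25 μg/mL kanamycin, together with 100 μg/mL carbenicillin, 50 μM IPTG and 0.2% rhamnose. Colonies were pooled and amplicon-sequenced on an Illumina HiSeq 2500. Fitness from DiMSum is the error-weighted combination of wild-type-normalised replicate fold changes, kanamycin over none.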

Sequence | self-splicing fitness (ln) (30 °C) | self-splicing fitness (ln) (37 °C)
AGUAAGCAAUAUUACGAUCA | 0.197 ± 0.16 | -0.44 ± 0.15
AGUAAGCAAUAUUACGCAAC |  | -2.61 ± 0.38
AGUAAGCAAUAUUACGCAAG | -2.99 ± 0.16 | -1.88 ± 0.19
AGUAAGCAAUAUUACGCACG | -1.43 ± 0.1 | -0.219 ± 0.12
AGUAAGCAAUAUUACGCCGC | -1.03 ± 0.25 | -2.95 ± 0.48
AGUAAGCAAUAUUACGCCGU | -0.289 ± 0.17 | -2.06 ± 0.31
AGUAAGCAAUAUUACGCCUG | -2.19 ± 0.12 | -1.15 ± 0.12
AGUAAGCAAUAUUACGCGGG | -2.82 ± 0.29 | -2.13 ± 0.29
AGUAAGCAAUAUUACGCGUC | -3.37 ± 0.19 | -2.2 ± 0.17
AGUAAGCAAUAUUACGCUCA | -0.405 ± 0.12 | -0.595 ± 0.11
AGUAAGCAAUAUUACGCUCG | -0.783 ± 0.17 | -0.584 ± 0.21
AGUAAGCAAUAUUACGCUCU | -1.96 ± 0.2 | -1.59 ± 0.27
AGUAAGCAAUAUUACGCUGC | -2.97 ± 0.29 | 
AGUAAGCAAUAUUACGCUGU | -2.78 ± 0.22 | -1.88 ± 0.3
AGUAAGCAAUAUUACGGAAC | -1.82 ± 0.25 | -2.6 ± 0.27
AGUAAGCAAUAUUACGGACA | -0.314 ± 0.091 | -0.393 ± 0.11
AGUAAGCAAUAUUACGGCAG | -2.1 ± 0.16 | -1.53 ± 0.2
AGUAAGCAAUAUUACGGCCG | -0.888 ± 0.11 | -0.63 ± 0.18
AGUAAGCAAUAUUACGGGAU | -3.01 ± 0.25 | -1.12 ± 0.15
AGUAAGCAAUAUUACGGGGG | -3.08 ± 0.22 | -2.87 ± 0.29
AGUAAGCAAUAUUACGGUGG | -3.68 ± 0.2 | -1.66 ± 0.16
AGUAAGCAAUAUUACGUAGC | -4.37 ± 0.42 | -3.1 ± 0.47
AGUAAGCAAUAUUACGUCCC | -0.303 ± 0.15 | 0.019 ± 0.18
AGUAAGCAAUAUUACGUCGG | -3.61 ± 0.35 | -1.8 ± 0.29
AGUCAGCAAUAUUACGAACC | -0.519 ± 0.15 | -0.0581 ± 0.16
AGUCAGCAAUAUUACGAACG | 0.155 ± 0.087 | 0.717 ± 0.15

Sequence | self-splicing fitness (ln) (30 °C) | self-splicing fitness (ln) (37 °C)
AGUCAGCAAUAUUACGAAUC | -0.727 ± 0.13 | -0.18 ± 0.19
AGUCAGCAAUAUUACGACCU | -0.358 ± 0.081 | 0.103 ± 0.11
AGUCAGCAAUAUUACGAUAA | -0.337 ± 0.087 | -0.697 ± 0.1
AGUCAGCAAUAUUACGAUAC | -1.69 ± 0.12 | -0.336 ± 0.11
AGUCAGCAAUAUUACGAUCG | -0.601 ± 0.091 | 0.358 ± 0.14
AGUCAGCAAUAUUACGAUUU | -0.399 ± 0.064 | -0.286 ± 0.11
AGUCAGCAAUAUUACGCAAU | -0.997 ± 0.075 | 0.245 ± 0.096
AGUCAGCAAUAUUACGCACU | -2.19 ± 0.12 | -1.42 ± 0.13
AGUCAGCAAUAUUACGCAGC | -2.28 ± 0.15 | -1.22 ± 0.16
AGUCAGCAAUAUUACGCCAG | -3.55 ± 0.34 | -2.47 ± 0.31
AGUCAGCAAUAUUACGCCCA | -1.19 ± 0.13 | 0.479 ± 0.18
AGUCAGCAAUAUUACGCCGA | -1.92 ± 0.25 | -1.92 ± 0.3
AGUCAGCAAUAUUACGCGUG | -1.28 ± 0.097 | -0.66 ± 0.11
AGUCAGCAAUAUUACGCGUU | 0.159 ± 0.077 | 0.0714 ± 0.085
AGUCAGCAAUAUUACGCUAG | -3.33 ± 0.18 | -2.64 ± 0.23
AGUCAGCAAUAUUACGCUUG | -2.79 ± 0.15 | -0.514 ± 0.15
AGUCAGCAAUAUUACGGCAG | -0.629 ± 0.11 | -0.145 ± 0.15
AGUCAGCAAUAUUACGGCUC | -3.84 ± 0.43 | -1.54 ± 0.45
AGUCAGCAAUAUUACGGGAC | -2.45 ± 0.18 | -2.16 ± 0.24
AGUCAGCAAUAUUACGGGCA | -0.79 ± 0.095 | -0.281 ± 0.11
AGUCAGCAAUAUUACGGGCU | -2.43 ± 0.19 | -3.12 ± 0.43
AGUCAGCAAUAUUACGGGUU | -0.799 ± 0.077 | -0.628 ± 0.086
AGUCAGCAAUAUUACGGUCA | -0.726 ± 0.11 | -0.323 ± 0.1
AGUCAGCAAUAUUACGUAAC | -1.88 ± 0.099 | -1.37 ± 0.11
AGUCAGCAAUAUUACGUAAU | -1.16 ± 0.062 | -0.387 ± 0.088
AGUCAGCAAUAUUACGUCAA | -2.24 ± 0.12 | -1.09 ± 0.1

Sequence | self-splicing fitness (ln) (30 °C) | self-splicing fitness (ln) (37 °C)
AGUCAGCAAUAUUACGUCAU | -0.181 ± 0.072 | -0.133 ± 0.09
AGUCAGCAAUAUUACGUCGC | -1.65 ± 0.13 | -1.14 ± 0.19
AGUCAGCAAUAUUACGUCGG | -0.874 ± 0.086 | -1.23 ± 0.11
AGUCAGCAAUAUUACGUGUG | -2.26 ± 0.099 | -1.57 ± 0.11
AGUGAGCAAUAUUACGAAAU |  | -2.07 ± 0.39
AGUGAGCAAUAUUACGAAGC | -4.89 ± 0.46 | -1.55 ± 0.33
AGUGAGCAAUAUUACGAGAU | -3.9 ± 0.23 | -1.49 ± 0.19
AGUGAGCAAUAUUACGAGGU | -3.63 ± 0.31 | 
AGUGAGCAAUAUUACGAUCC | -0.375 ± 0.25 | -0.193 ± 0.22
AGUGAGCAAUAUUACGAUCU | -1.7 ± 0.14 | -1.13 ± 0.15
AGUGAGCAAUAUUACGAUUG | -3.59 ± 0.42 | -2.77 ± 0.38
AGUGAGCAAUAUUACGCAUC | -3.32 ± 0.28 | -0.505 ± 0.26
AGUGAGCAAUAUUACGCAUG | -3.22 ± 0.29 | -3.25 ± 0.43
AGUGAGCAAUAUUACGCCGG | -2.67 ± 0.26 | -1.81 ± 0.38
AGUGAGCAAUAUUACGCGAC | -1.74 ± 0.32 | -1.46 ± 0.31
AGUGAGCAAUAUUACGCUCC | -1.69 ± 0.45 | 
AGUGAGCAAUAUUACGGACC | -0.918 ± 0.22 | -0.539 ± 0.33
AGUGAGCAAUAUUACGGAUA | -2.82 ± 0.28 | -0.678 ± 0.35
AGUGAGCAAUAUUACGGAUC | -2.42 ± 0.25 | -1.25 ± 0.34
AGUGAGCAAUAUUACGGAUG | -3.2 ± 0.24 | -3.06 ± 0.3
AGUGAGCAAUAUUACGGCGC | -0.869 ± 0.35 | -0.599 ± 0.2
AGUGAGCAAUAUUACGGCUG | -2.19 ± 0.12 | -0.36 ± 0.16
AGUGAGCAAUAUUACGGGAA | -2.94 ± 0.29 | 
AGUGAGCAAUAUUACGGGAU | -3.44 ± 0.26 | -1.7 ± 0.29
AGUGAGCAAUAUUACGGGCU | -4.57 ± 0.39 | -2.72 ± 0.3

Source: the supplement of paper PMC7877785
